Data: PMC6130949, “The rational design of affinity-attenuated OmCI for the purification of complement C5” (The Journal of Biological Chemistry, 2018)
Where “and” joins values, the source holds several entries; their conditions need not be identical. Equal values may be shown once.

What was measured:
[1] = molecular target: Complement component C5 from human serum (human (endogenous in human serum))
[2] = molecular target: OmCI E141A/R47A/L140G (Ornithodoros moubata) (UniProt Q5YD59); experiment: SPR; single-cycle kinetics, Biacore 8K; OmCI amine coupled to a CM5 chip (~50 RU); C5 (CompTech) as analyte, 9-point 3-fold titration from 500 nM in HBS-EP, 40 ul/min, contact 230 s, dissociation 900 s; single-site binding model
[3] = molecular target: OmCI E141A/R47A (Ornithodoros moubata) (UniProt Q5YD59); experiment: as above
[4] = molecular target: OmCI L140G (Ornithodoros moubata) (UniProt Q5YD59); experiment: as above
[5] = molecular target: OmCI E141A/L140G (Ornithodoros moubata) (UniProt Q5YD59); experiment: as above
[6] = molecular target: OmCI E141A (Ornithodoros moubata) (UniProt Q5YD59); experiment: as above
[7] = molecular target: OmCI D167A (Ornithodoros moubata) (UniProt Q5YD59); experiment: as above
[8] = molecular target: OmCI M134G (Ornithodoros moubata) (UniProt Q5YD59); experiment: as above
[9] = molecular target: OmCI H117A (Ornithodoros moubata) (UniProt Q5YD59); experiment: as above
[10] = molecular target: OmCI E141A/H164A (Ornithodoros moubata) (UniProt Q5YD59); experiment: as above
[11] = molecular target: OmCI F36W (Ornithodoros moubata) (UniProt Q5YD59); experiment: as above
[12] = molecular target: OmCI E141A/R47A/H164A/L140G (Ornithodoros moubata) (UniProt Q5YD59); experiment: as above
[13] = molecular target: OmCI R47A (Ornithodoros moubata) (UniProt Q5YD59); experiment: as above
[14] = molecular target: OmCI H164A (Ornithodoros moubata) (UniProt Q5YD59); experiment: as above
[15] = molecular target: Wildtype OmCI (Ornithodoros moubata) (UniProt Q5YD59); experiment: differential scanning calorimetry; C5 (CompTech) and OmCI mixed in 1:1.25 molar ratio, at least 6 h at 4 °C, PBS; heated 10-100 °C at 1 °C/min; n = 1
[16] = molecular target: OmCI E141A/R47A (Ornithodoros moubata) (UniProt Q5YD59); experiment: SPR; multicycle kinetics, Biacore 8K; OmCI biotinylated on the N-terminal AVI tag and captured on an SA streptavidin chip (20-100 RU); C5 as analyte, 7-point 3-fold titration from 250 nM in HBS-EP, 30 ul/min, contact 240 s, dissociation 3600 s; regeneration with 0.1 M citric acid pH 2.0; single-site binding model
[17] = molecular target: OmCI E141A (Ornithodoros moubata) (UniProt Q5YD59); experiment: as above
[18] = molecular target: OmCI E141A/H164A (Ornithodoros moubata) (UniProt Q5YD59); experiment: as above
[19] = molecular target: Wildtype OmCI (Ornithodoros moubata) (UniProt Q5YD59); experiment: as above
[20] = molecular target: T1, Complement component C5 (UniProt P01031 19-673; P01031 678-1676); experiment: SPR; multicycle kinetics, Biacore 8K; biotinylated OmCI captured by its N-terminal AVI tag on an SA streptavidin chip; C5 as analyte, 7-point 3-fold titration from 250 nM in HBS-EP, 30 ul/min, contact 240 s, dissociation 3600 s; single-site binding model; values of the individual occasions (n=1 to n=4); details: both partners purified
T1 construct: complement C5 beta chain; complement C5 alpha chain; Commercial C5 from CompTech; source: bought: CompTech
T1 sequence (P01031 19-673, chain 1 of 2): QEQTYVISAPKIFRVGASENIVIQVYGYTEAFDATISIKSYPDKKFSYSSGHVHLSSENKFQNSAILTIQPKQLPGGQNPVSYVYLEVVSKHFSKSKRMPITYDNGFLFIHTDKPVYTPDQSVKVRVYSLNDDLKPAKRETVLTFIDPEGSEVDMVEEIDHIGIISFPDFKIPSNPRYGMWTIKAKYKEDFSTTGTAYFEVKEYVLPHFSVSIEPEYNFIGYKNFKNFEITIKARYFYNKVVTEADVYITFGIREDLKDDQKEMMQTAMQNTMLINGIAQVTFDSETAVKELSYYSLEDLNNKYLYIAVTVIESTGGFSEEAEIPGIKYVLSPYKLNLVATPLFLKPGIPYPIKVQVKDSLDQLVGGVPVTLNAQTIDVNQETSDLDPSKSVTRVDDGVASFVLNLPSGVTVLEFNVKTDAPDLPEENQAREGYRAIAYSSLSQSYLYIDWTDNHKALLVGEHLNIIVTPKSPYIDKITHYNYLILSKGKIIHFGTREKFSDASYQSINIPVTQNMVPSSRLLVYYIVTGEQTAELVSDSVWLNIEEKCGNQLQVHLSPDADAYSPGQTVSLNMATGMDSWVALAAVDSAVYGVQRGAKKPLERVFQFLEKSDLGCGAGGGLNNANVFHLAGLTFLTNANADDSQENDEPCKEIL
T1 sequence (P01031 678-1676, chain 2 of 2): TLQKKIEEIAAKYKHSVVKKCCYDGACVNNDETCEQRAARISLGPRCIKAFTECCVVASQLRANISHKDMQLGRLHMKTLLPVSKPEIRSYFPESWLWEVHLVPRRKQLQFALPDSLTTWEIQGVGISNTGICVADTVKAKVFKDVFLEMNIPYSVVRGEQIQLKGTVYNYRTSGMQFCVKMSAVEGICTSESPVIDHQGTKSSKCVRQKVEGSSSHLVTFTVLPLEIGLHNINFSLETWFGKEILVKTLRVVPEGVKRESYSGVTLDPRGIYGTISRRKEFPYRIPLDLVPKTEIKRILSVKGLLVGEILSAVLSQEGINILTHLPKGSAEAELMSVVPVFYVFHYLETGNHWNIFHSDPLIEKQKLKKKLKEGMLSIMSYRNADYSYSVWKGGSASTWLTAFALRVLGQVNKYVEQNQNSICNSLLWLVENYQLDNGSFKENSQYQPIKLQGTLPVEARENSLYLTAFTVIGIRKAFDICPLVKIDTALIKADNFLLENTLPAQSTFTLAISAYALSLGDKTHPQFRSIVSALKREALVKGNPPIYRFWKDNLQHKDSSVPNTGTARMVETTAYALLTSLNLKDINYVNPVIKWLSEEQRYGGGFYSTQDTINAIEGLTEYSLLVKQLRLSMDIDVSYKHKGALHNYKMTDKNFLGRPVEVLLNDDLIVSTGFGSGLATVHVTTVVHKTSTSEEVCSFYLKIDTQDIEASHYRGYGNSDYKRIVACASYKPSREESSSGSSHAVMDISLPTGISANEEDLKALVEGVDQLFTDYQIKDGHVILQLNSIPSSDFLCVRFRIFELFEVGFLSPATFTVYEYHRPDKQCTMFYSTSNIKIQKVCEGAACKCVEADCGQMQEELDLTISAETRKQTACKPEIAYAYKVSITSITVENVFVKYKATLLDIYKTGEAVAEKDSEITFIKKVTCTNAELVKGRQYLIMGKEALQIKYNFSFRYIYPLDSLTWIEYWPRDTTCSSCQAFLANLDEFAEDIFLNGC

## OmCI H164A (from UniProt Q5YD59 19-168) (natural protein)
[1]
  pIC50, alternative pathway (AP) complement activation ELISA (inhibition of MAC formation), OmCI titrated from 5 uM in human serum: < 8.8 −log M

## OmCI E141A/H164A (from UniProt Q5YD59 19-168) (natural protein)
[1]
  pIC50, alternative pathway (AP) complement activation ELISA (inhibition of MAC formation), OmCI titrated from 5 uM in human serum: 8.5 −log M

## OmCI R47A (from UniProt Q5YD59 19-168) (natural protein)
[1]
  pIC50, alternative pathway (AP) complement activation ELISA (inhibition of MAC formation), OmCI titrated from 5 uM in human serum: < 9 −log M

## OmCI E141A (from UniProt Q5YD59 19-168) (natural protein)
[1]
  pIC50, alternative pathway (AP) complement activation ELISA (inhibition of MAC formation), OmCI titrated from 5 uM in human serum: < 8.9 −log M

## Complement component C5 (CompTech) (natural protein)
[2]
  approximate fold change in koff relative to WT OmCI: 1270 fold
[3]
  approximate fold change in koff relative to WT OmCI: 973 fold
[4]
  approximate fold change in koff relative to WT OmCI: 1 fold
[5]
  approximate fold change in koff relative to WT OmCI: 31.3 fold
[6]
  approximate fold change in koff relative to WT OmCI: 29.1 fold
[7]
  approximate fold change in koff relative to WT OmCI: 2.4 fold
[8]
  approximate fold change in koff relative to WT OmCI: 229 fold
[9]
  approximate fold change in koff relative to WT OmCI: 1.1 fold
[10]
  approximate fold change in koff relative to WT OmCI: 197 fold
[11]
  approximate fold change in koff relative to WT OmCI: 2.6 fold
[12]
  approximate fold change in koff relative to WT OmCI: 5500 fold
[13]
  approximate fold change in koff relative to WT OmCI: 4.1 fold
[14]
  approximate fold change in koff relative to WT OmCI: 3.5 fold
[15]
  ΔTm of the main C5 unfolding peak on complexing: 8.6 °C
[16]
  Kd: 13.1 nM
  koff: 0.0318 s⁻¹
  kon: 3.01e+06 M⁻¹ s⁻¹
[17]
  Kd: 0.709 nM
  koff: 0.000304 s⁻¹
  kon: 481000 M⁻¹ s⁻¹
[18]
  Kd: 4.09 nM
  koff: 0.00406 s⁻¹
  kon: 1.13e+06 M⁻¹ s⁻¹
[19]
  Kd: < 0.1 nM
  koff: < 1e-05 s⁻¹
  kon: 588000 M⁻¹ s⁻¹
  stoichiometry N: < 1

## OmCI E141A/R47A (from UniProt Q5YD59 19-168) (natural protein)
[1]
  pIC50, alternative pathway (AP) complement activation ELISA (inhibition of MAC formation), OmCI titrated from 5 uM in human serum: 8 −log M

## Wildtype OmCI (from UniProt Q5YD59 19-168) (natural protein)
[1]
  pIC50, alternative pathway (AP) complement activation ELISA (inhibition of MAC formation), OmCI titrated from 5 uM in human serum: < 9 −log M

## Complement component C5 from human serum (natural protein)
[19]
  Kd: < 0.1 nM

B1: Wild-type OmCI with N-terminal 10xHis, TEV site and AVI tag (natural protein)
chain: DSESDCTGSEPVDAFQAFSEGKEAYVLVRSTDPKARDCLKGEPAGEKQDNTLPVMMTFKNGTDWASTDWTFTLDGAKVTATLGNLTQNREVVYDSQSHHCHVDKVEKEVPDYEMWMLDAGGLEVEVECCRQKLEELASGRNQMYPHLKDC
modifications: biotin on the N-terminal AVI tag (Bir-A)
notes: OmCI of Ornithodoros moubata, UniProt Q5YD59, without its signal peptide; No TEV cleavage is described; also called wt OmCI; OmCI WT; source: ExpiHEK 293, transfected, purified from supernatant (nickel-Sepharose Excel); not shown: AVI tag, N-terminal, kept
[20]
  Kd: < 0.1 nM
  koff: < 1e-05 s⁻¹
  kon: 384000 M⁻¹ s⁻¹ and 400000 M⁻¹ s⁻¹ and 1.14e+06 M⁻¹ s⁻¹ and 432000 M⁻¹ s⁻¹

B2: OmCI E141A with N-terminal 10xHis, TEV site and AVI tag (natural protein)
chain: DSESDCTGSEPVDAFQAFSEGKEAYVLVRSTDPKARDCLKGEPAGEKQDNTLPVMMTFKNGTDWASTDWTFTLDGAKVTATLGNLTQNREVVYDSQSHHCHVDKVEKEVPDYEMWMLDAGGLAVEVECCRQKLEELASGRNQMYPHLKDC
modifications: biotin on the N-terminal AVI tag (Bir-A)
notes: OmCI of Ornithodoros moubata, UniProt Q5YD59, without its signal peptide; also called OmCI WT E141A; source: ExpiHEK 293, transfected, purified from supernatant (nickel-Sepharose Excel); not shown: AVI tag, N-terminal, kept
[20]
  Kd: 0.896 nM and 0.395 nM and 0.707 nM and 0.837 nM
  koff: 0.000307 s⁻¹ and 0.000328 s⁻¹ and 0.000273 s⁻¹
  kon: 343000 M⁻¹ s⁻¹ and 830000 M⁻¹ s⁻¹ and 367000 M⁻¹ s⁻¹ and 386000 M⁻¹ s⁻¹

B3: OmCI E141A/H164A with N-terminal 10xHis, TEV site and AVI tag (natural protein)
chain: DSESDCTGSEPVDAFQAFSEGKEAYVLVRSTDPKARDCLKGEPAGEKQDNTLPVMMTFKNGTDWASTDWTFTLDGAKVTATLGNLTQNREVVYDSQSHHCHVDKVEKEVPDYEMWMLDAGGLAVEVECCRQKLEELASGRNQMYPALKDC
modifications: biotin on the N-terminal AVI tag (Bir-A)
notes: OmCI of Ornithodoros moubata, UniProt Q5YD59, without its signal peptide; source: ExpiHEK 293, transfected, purified from supernatant (nickel-Sepharose Excel); not shown: AVI tag, N-terminal, kept
[20]
  Kd: 5.13 nM and 5.35 nM and 1.8 nM
  koff: 0.00438 s⁻¹ and 0.00489 s⁻¹ and 0.00292 s⁻¹
  kon: 855000 M⁻¹ s⁻¹ and 913000 M⁻¹ s⁻¹ and 1.62e+06 M⁻¹ s⁻¹

B4: OmCI E141A/R47A with N-terminal 10xHis, TEV site and AVI tag (natural protein)
chain: DSESDCTGSEPVDAFQAFSEGKEAYVLVASTDPKARDCLKGEPAGEKQDNTLPVMMTFKNGTDWASTDWTFTLDGAKVTATLGNLTQNREVVYDSQSHHCHVDKVEKEVPDYEMWMLDAGGLAVEVECCRQKLEELASGRNQMYPHLKDC
modifications: biotin on the N-terminal AVI tag (Bir-A)
notes: as for B3
[20]
  Kd: 17.6 nM and 7.26 nM and 9.55 nM and 18 nM
